In patent publication US8546531B2, “Methods and reagents for preparing multifunctional probes” (The General Hospital Corporation, priority 2008, dated 2013):

Test system: integrin-expressing B16F0 melanoma
Details: mouse, in vivo, iv
Description: Approximately 1·10^6 B16F0 murine melanoma cells (from C57BL6 mice) in PBS (40 μL) were injected s.c. into the right hind paw of 6-8 weeks female C57BL6 mice (Charles River Laboratories). After 4 weeks, tumors reached a size suitable for nuclear imaging experiments.
SPECT imaging co-registered with high-resolution CT was performed on a X-SPECT™ system (Gamma Medica, Northridge, Calif., USA). The SPECT system has two gamma cameras, equipped with 1 mm diameter medium-energy pinhole collimators. The solid state CT is mounted on the same gantry as the gamma cameras enabling high quality image fusion. The SPECT images were reconstructed using OSEM (ordered subsets expectation maximization) and CT images were reconstructed using a modified Feldkamp cone-beam reconstruction algorithm (COBRA). The ^111In-MSAP-RGD probe (300 μCi in 150 μL) was injected (iv, tail vein) and after 2 hours mice were anesthetized (isoflurane). CT (256 projections, 50 kV, 0.5 mA) was performed followed by a SPECT acquisition with parameters of 64 projections, 30-120 seconds per projection and a radius of rotation of 3.5 cm giving a resolution of 1.8 mm. […] Mean SPECT pixel intensity and tumor volumes were determined by designing regions of interest (ROIs) on the hind paws of the micrometer resolution CT scans and extrapolating these ROIs to the fused SPECT data using Osirix software. […]

`N=C(N)NCCC[C@@H]1NC(=O)[C@H](CCCCNC(=O)CCCN2C(=O)CC(SC[C@H](NC(=O)[C@H](CCCCNC(=O)CCCCCNc3ccc([N+](=O)[O-])c4nonc34)NC(=O)CN(CCN(CC(=O)O)CC(=O)O)CCN(CC(=O)O)CC(=O)O)C(N)=O)C2=O)NC(=O)[C@@H](Cc2ccccc2)NC(=O)[C@H](CC(=O)O)NC(=O)CNC1=O` (stereo partly shown) (111In complex, metal not drawn) [MSAP-RGD probe] was tested, and the “distribution of the probe within the tumor” value was “occurred in parts of the tumor with high CD31 (endothelial cell maker) levels and CD11b (monocytes/macrophages marker) levels”.
